Numbered stars: 1 amine (or outer) side, 2 acyl side, 3 side chain; on linkers, the order of the positions; unused ones are H or OH. Square brackets hold non-standard residues; d marks the D form. Glu(cHx) = L-glutamic acid cyclohexyl ester, O=C(CC[C@H](N[*:1])C(=O)[*:2])OC1CCCCC1; Hyp = O=C(O)[C@@H]1C[C@@H](O)CN1

We go through 15 molecules from US20170369523A1, “TEMPLATE-FIXED BETA-HAIRPIN PEPTIDOMIMETICS THAT ARE LIGANDS FOR G-PROTEIN-COUPLED RECEPTORS (GPCRS) AND ARE MODULATORS OF TRANSCRIPTION FACTORS AND COACTIVATORS” (POLYPHOR AG, priority 2008, published 2017).

In this assay the target is T1, NCoA-1 (UniProt Q15788 257-385, limits assumed).
T1 construct: also called SRC-1
T1 sequence (looked up): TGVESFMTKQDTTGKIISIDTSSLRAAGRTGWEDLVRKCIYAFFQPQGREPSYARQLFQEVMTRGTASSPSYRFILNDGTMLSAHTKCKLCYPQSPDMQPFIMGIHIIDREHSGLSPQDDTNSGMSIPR
As to the kind of experiment: competition fluorescence polarization; displacement of FluoSTAT6 from NCoA-1. As to the method:
The mixtures were shaken thoroughly. Fluorescence polarization was measured on a SPECTRAmax M5 spectrometer (Molecular device) following 5-30 min incubation at room temperature. FluoSTAT6 was excited at 490 nm and emission polarization was detected at 525 nm. 40 intensity measurements were collected for each well, 20 at horizontal position of the dynamic polarizer, 20 at parallel position. As the fraction of FluoSTAT6 bound to NCoA-1 is correlated to the fluorescence polarization (FP), after normalization, the fraction of bound FluoSTAT6 (B) was determined, and the KD was calculated according to B=[(1+P/R+KD/R)−((1+P/R+KD/R)²−4P/R)^{0.5}]/2, wherein P is the total probe concentration, R the total protein concentration and KD the dissociation constant (M. H. Roehrl, J. Y. Wang, G. Wagner, Biochemistry 2004, 3, 16056).
To determine the Kᵢ values of potential inhibitors of the STAT6/NCoA-1 interaction (competition fluorescence polarization) the compounds (dilution series from 0 to 100 μM final concentration) dissolved in HEPES buffer (10 mM HEPES, 150 mM NaCl, 3.4 mM EDTA, 0.1% BSA) were dispensed in a black 96 well plate (Greiner) and FluoSTAT6 (200 nM final concentration) in HEPES buffer was added. The mixture was completed by a HEPES buffer solution of NCoA-1 (1 μM final concentration) and processed as described above. STAT6Y (C-terminal tyrosine extended STAT6 794-814 peptide) was used as a positive control. As the total fluorescence intensity of FluoSTAT6 remains similar for all samples, the fraction of peptide bound to NCoA-1 is correlated to the fluorescence polarization.
Following normalization data were fitted with IGORpro Software® (WaveMetrics, Lake Oswego, Oreg., USA) to a sigmoid equation to determine IC₅₀ values.

B1: Ex. 2 (peptide)
peptide: cyclo(FEWLAWEF[dP][Hyp])
SMILES: CC(C)C[C@@H]1NC(=O)[C@H](Cc2c[nH]c3ccccc23)NC(=O)[C@H](CCC(=O)O)NC(=O)[C@H](Cc2ccccc2)NC(=O)[C@@H]2C[C@@H](O)CN2C(=O)[C@H]2CCCN2C(=O)[C@H](Cc2ccccc2)NC(=O)[C@H](CCC(=O)O)NC(=O)[C@H](Cc2c[nH]c3ccccc23)NC(=O)[C@H](C)NC1=O
notes: cyclo(-P1..P8-template-)
Molecule B1 showed an inhibition constant (Ki) of 4.7 µM.

B2: Ex. 20 (peptide)
peptide: cyclo(FEWLAWEE[dP]P)
SMILES: CC(C)C[C@@H]1NC(=O)[C@H](Cc2c[nH]c3ccccc23)NC(=O)[C@H](CCC(=O)O)NC(=O)[C@H](Cc2ccccc2)NC(=O)[C@@H]2CCCN2C(=O)[C@H]2CCCN2C(=O)[C@H](CCC(=O)O)NC(=O)[C@H](CCC(=O)O)NC(=O)[C@H](Cc2c[nH]c3ccccc23)NC(=O)[C@H](C)NC1=O
notes: cyclo(-P1..P8-template-)
In turn, B2 returned a Ki of 11.5 µM.

B3: Ex. 12 (peptide)
peptide: cyclo(FEWLYWEF[dP]P)
SMILES: CC(C)C[C@@H]1NC(=O)[C@H](Cc2c[nH]c3ccccc23)NC(=O)[C@H](CCC(=O)O)NC(=O)[C@H](Cc2ccccc2)NC(=O)[C@@H]2CCCN2C(=O)[C@H]2CCCN2C(=O)[C@H](Cc2ccccc2)NC(=O)[C@H](CCC(=O)O)NC(=O)[C@H](Cc2c[nH]c3ccccc23)NC(=O)[C@H](Cc2ccc(O)cc2)NC1=O
notes: cyclo(-P1..P8-template-)
B3: the Ki turned out to be 9.3 µM.

B4: Ex. 17 (peptide)
peptide: cyclo(FEALDWEF[dP]P)
SMILES: CC(C)C[C@@H]1NC(=O)[C@H](C)NC(=O)[C@H](CCC(=O)O)NC(=O)[C@H](Cc2ccccc2)NC(=O)[C@@H]2CCCN2C(=O)[C@H]2CCCN2C(=O)[C@H](Cc2ccccc2)NC(=O)[C@H](CCC(=O)O)NC(=O)[C@H](Cc2c[nH]c3ccccc23)NC(=O)[C@H](CC(=O)O)NC1=O
notes: cyclo(-P1..P8-template-)
In the case of B4, affinity was put at a Ki of 15.8 µM.

B5: Ex. 27 (peptide)
peptide: cyclo(MEWLDWEF[dP]P)
SMILES: CSCC[C@@H]1NC(=O)[C@@H]2CCCN2C(=O)[C@H]2CCCN2C(=O)[C@H](Cc2ccccc2)NC(=O)[C@H](CCC(=O)O)NC(=O)[C@H](Cc2c[nH]c3ccccc23)NC(=O)[C@H](CC(=O)O)NC(=O)[C@H](CC(C)C)NC(=O)[C@H](Cc2c[nH]c3ccccc23)NC(=O)[C@H](CCC(=O)O)NC1=O
notes: cyclo(-P1..P8-template-)
As to B5, affinity was put at a Ki of 7.9 µM.

B6: Ex. 22 (peptide)
peptide: cyclo(FLWLAWEF[dP]P)
SMILES: CC(C)C[C@@H]1NC(=O)[C@H](Cc2c[nH]c3ccccc23)NC(=O)[C@H](CC(C)C)NC(=O)[C@H](Cc2ccccc2)NC(=O)[C@@H]2CCCN2C(=O)[C@H]2CCCN2C(=O)[C@H](Cc2ccccc2)NC(=O)[C@H](CCC(=O)O)NC(=O)[C@H](Cc2c[nH]c3ccccc23)NC(=O)[C@H](C)NC1=O
notes: cyclo(-P1..P8-template-)
The molecule B6 returned a Ki of 8.9 µM.

B7: Ex. 11 (peptide)
peptide: cyclo(FEWYAWEF[dP]P)
SMILES: C[C@@H]1NC(=O)[C@H](Cc2ccc(O)cc2)NC(=O)[C@H](Cc2c[nH]c3ccccc23)NC(=O)[C@H](CCC(=O)O)NC(=O)[C@H](Cc2ccccc2)NC(=O)[C@@H]2CCCN2C(=O)[C@H]2CCCN2C(=O)[C@H](Cc2ccccc2)NC(=O)[C@H](CCC(=O)O)NC(=O)[C@H](Cc2c[nH]c3ccccc23)NC1=O
notes: cyclo(-P1..P8-template-)
B7 yielded a Ki of 8.7 µM.

B8: Ex. 24 (peptide)
peptide: cyclo(FEWLAWLF[dP]P)
SMILES: CC(C)C[C@@H]1NC(=O)[C@H](Cc2c[nH]c3ccccc23)NC(=O)[C@H](CCC(=O)O)NC(=O)[C@H](Cc2ccccc2)NC(=O)[C@@H]2CCCN2C(=O)[C@H]2CCCN2C(=O)[C@H](Cc2ccccc2)NC(=O)[C@H](CC(C)C)NC(=O)[C@H](Cc2c[nH]c3ccccc23)NC(=O)[C@H](C)NC1=O
notes: cyclo(-P1..P8-template-)
For B8, the Ki worked out at 24.3 µM.

B9: Ex. 16 (peptide)
peptide: cyclo(FEWLDWEM[dP]P)
SMILES: CSCC[C@@H]1NC(=O)[C@H](CCC(=O)O)NC(=O)[C@H](Cc2c[nH]c3ccccc23)NC(=O)[C@H](CC(=O)O)NC(=O)[C@H](CC(C)C)NC(=O)[C@H](Cc2c[nH]c3ccccc23)NC(=O)[C@H](CCC(=O)O)NC(=O)[C@H](Cc2ccccc2)NC(=O)[C@@H]2CCCN2C(=O)[C@H]2CCCN2C1=O
notes: cyclo(-P1..P8-template-)
The molecule B9 returned a Ki of 6.6 µM.

B10: Ex. 23 (peptide)
peptide: cyclo(EEWLAWEF[dP]P)
SMILES: CC(C)C[C@@H]1NC(=O)[C@H](Cc2c[nH]c3ccccc23)NC(=O)[C@H](CCC(=O)O)NC(=O)[C@H](CCC(=O)O)NC(=O)[C@@H]2CCCN2C(=O)[C@H]2CCCN2C(=O)[C@H](Cc2ccccc2)NC(=O)[C@H](CCC(=O)O)NC(=O)[C@H](Cc2c[nH]c3ccccc23)NC(=O)[C@H](C)NC1=O
notes: cyclo(-P1..P8-template-)
The molecule B10 returned a Ki of 16.4 µM.

B11: Ex. 19 (peptide)
peptide: cyclo(FEWLDWEF[dP]P)
SMILES: CC(C)C[C@@H]1NC(=O)[C@H](Cc2c[nH]c3ccccc23)NC(=O)[C@H](CCC(=O)O)NC(=O)[C@H](Cc2ccccc2)NC(=O)[C@@H]2CCCN2C(=O)[C@H]2CCCN2C(=O)[C@H](Cc2ccccc2)NC(=O)[C@H](CCC(=O)O)NC(=O)[C@H](Cc2c[nH]c3ccccc23)NC(=O)[C@H](CC(=O)O)NC1=O
notes: cyclo(-P1..P8-template-)
Take B11: the Ki came out at 3.7 µM.

B12: Ex. 7 (peptide)
peptide: cyclo(FEWGAWEF[dP]P)
SMILES: C[C@@H]1NC(=O)CNC(=O)[C@H](Cc2c[nH]c3ccccc23)NC(=O)[C@H](CCC(=O)O)NC(=O)[C@H](Cc2ccccc2)NC(=O)[C@@H]2CCCN2C(=O)[C@H]2CCCN2C(=O)[C@H](Cc2ccccc2)NC(=O)[C@H](CCC(=O)O)NC(=O)[C@H](Cc2c[nH]c3ccccc23)NC1=O
notes: cyclo(-P1..P8-template-)
On to B12, for which the Ki came to 7.1 µM.

B13: Ex. 21 (peptide)
peptide: cyclo(FEWLAWYF[dP]P)
SMILES: CC(C)C[C@@H]1NC(=O)[C@H](Cc2c[nH]c3ccccc23)NC(=O)[C@H](CCC(=O)O)NC(=O)[C@H](Cc2ccccc2)NC(=O)[C@@H]2CCCN2C(=O)[C@H]2CCCN2C(=O)[C@H](Cc2ccccc2)NC(=O)[C@H](Cc2ccc(O)cc2)NC(=O)[C@H](Cc2c[nH]c3ccccc23)NC(=O)[C@H](C)NC1=O
notes: cyclo(-P1..P8-template-)
B13 showed a Ki of 19.6 µM.

B14: Ex. 8 (peptide)
peptide: cyclo(FEWLGWEF[dP]P)
SMILES: CC(C)C[C@@H]1NC(=O)[C@H](Cc2c[nH]c3ccccc23)NC(=O)[C@H](CCC(=O)O)NC(=O)[C@H](Cc2ccccc2)NC(=O)[C@@H]2CCCN2C(=O)[C@H]2CCCN2C(=O)[C@H](Cc2ccccc2)NC(=O)[C@H](CCC(=O)O)NC(=O)[C@H](Cc2c[nH]c3ccccc23)NC(=O)CNC1=O
notes: cyclo(-P1..P8-template-)
Molecule B14 came in with a Ki of 3 µM.

B15: Ex. 9 (peptide)
peptide: cyclo(FEWLAWE[Glu(cHx)][dP]P)
SMILES: CC(C)C[C@@H]1NC(=O)[C@H](Cc2c[nH]c3ccccc23)NC(=O)[C@H](CCC(=O)O)NC(=O)[C@H](Cc2ccccc2)NC(=O)[C@@H]2CCCN2C(=O)[C@H]2CCCN2C(=O)[C@H](CCC(=O)OC2CCCCC2)NC(=O)[C@H](CCC(=O)O)NC(=O)[C@H](Cc2c[nH]c3ccccc23)NC(=O)[C@H](C)NC1=O
notes: cyclo(-P1..P8-template-)
In turn, B15 displayed a Ki of 1.5 µM.
